Results as given in patent publication US20260035432A1 (PRECIGEN, published 2026).
Substitutions are numbered along the chain they refer to. Numbers in names are those of the source.

B1: Hum ROR1_05VH_(G4S)3x_VL_14 (antibody, mouse IgG1, V domains shown)
VH: EVQLVESGGGLVQPGGSLRLSCAASGFTFSSYAMSWVRQAPGKGLEWVSSISRGGTTYYPDSVKGRFTISRDNSKNTLYLQMNSLRAEDTAVYYCGRYDYDGYYAMDYWGQGTLVTVSS
VL: DIQMTQSPSSLSASVGDRVTITCKASPDINSYLNWYQQKPGKAPKLLIYRANRLVDGVPSRFSGSGSGTDYTLTISSLQPEDFATYYCLQYDEFPYTFGAGTKVEIK
notes: The name reads as an scFv with a (G4S)3 linker; The method text says variable regions were fused to mouse constant regions (chimeric mouse IgG1); VH/VL are tied by the numbers in the name
B2: Clone 04 (antibody, V domains shown)
VH: B1 VH with S50A, P60A
VL: B1 VL with K24Q, R53N, V55E, D56T, Y71F, F83I, A100Q, V104L
notes: Variable regions fused to mouse constant regions (chimeric mouse IgG1 mAb) for SPR; also called hROR1 VH_04 / hROR1 VL_04
B3: Clone 05 (antibody, V domains shown)
VH: B1 VH
VL: B1 VL with N34S, Y71F, F83I, A100Q, V104L
notes: Variable regions fused to mouse constant regions (chimeric mouse IgG1 mAb) for SPR; also called hROR1 VH_05 / hROR1 VL_05
B4: Clone 14 (antibody, V domains shown)
VH: B1 VH with A24T, V37M, S49A, P60A, R71V, N73K
VL: B1 VL
notes: Variable regions fused to mouse constant regions (chimeric mouse IgG1 mAb) for SPR; also called hROR1 VH_14 / hROR1 VL_14
B5: Clone 16 (antibody, V domains shown)
VH: B1 VH with S49A, P60D, D61P, S62K, V63F, K64Q, G65D, F67A, R71A, L78A
VL: B1 VL with L46V, A100Q
notes: Variable regions fused to mouse constant regions (chimeric mouse IgG1 mAb) for SPR; also called hROR1 VH_16 / hROR1 VL_16
B6: Hum ROR1_05VH_(G4S)3x_VL_16 (antibody, mouse IgG1, V domains shown)
VH: B1 VH
VL: B1 VL with L46V, A100Q
notes: as for B1
B7: Hum ROR1_07VH_(G4S)3x_VL_16 (antibody, mouse IgG1, V domains shown)
VH: B1 VH with M34I, S35I, S49A, S50R, Y58R, P60A, R71A, N73T, N76E, L78A
VL: B1 VL with L46V, A100Q
notes: as for B1
B8: Hum ROR1_14VH_(G4S)3x_VL_16 (antibody, mouse IgG1, V domains shown)
VH: B1 VH with A24T, V37M, S49A, P60A, R71V, N73K
VL: B1 VL with L46V, A100Q
notes: as for B1
B9: Hum ROR1_18VH_(G4S)3x_VL_14 (antibody, mouse IgG1, V domains shown)
VH: EVQLVESGGGLVQPGGSLRLSCSASGFTFSSYAMSWVRQVPGKGLVWISSISRGGTTYYADSVRGRFIISRDNAKNTLYLEMNNLRGEDTAVYYCARYDYDGYYAMDYWGQGTLVTVSS
VL: B1 VL
notes: as for B1
B10: Hum_design_14_variant3 (antibody, V domains shown)
VH: B1 VH with S49A, P60A
VL: B1 VL with Y71F, F83I, A100G
notes: Variable regions fused to mouse constant regions (chimeric mouse IgG1 mAb) for SPR; also called hROR1 VH_14-3 / hROR1 VL_14-3
B11: Hum_design_14_variant4 (antibody, V domains shown)
VH: B1 VH with S49A, S74V, K75R, T77I, N83S, A87S, V92M
VL: B1 VL
notes: Variable regions fused to mouse constant regions (chimeric mouse IgG1 mAb) for SPR; also called hROR1 VH_14-4 / hROR1 VL_14-4
B12: Hum_design_14_variant5 (antibody, V domains shown)
VH: B1 VH with A24T, V37M, Q39K, W47Y, S49A, P60A, R71V, N73K
VL: B1 VL
notes: Variable regions fused to mouse constant regions (chimeric mouse IgG1 mAb) for SPR; also called hROR1 VH_14-5 / hROR1 VL_14-5
B13: Hum ROR1_18VH_(G4S)3x_VL_04 (antibody, mouse IgG1, V domains shown)
VH: B9 VH
VL: B1 VL with K24Q, R53N, V55E, D56T, Y71F, F83I, A100Q, V104L
notes: as for B1
B14: Murine ROR1_v2 binding domain (VL and VH of MurineROR1_v2 (VL-VH)) (antibody, V domains shown)
VH: EVKLVESGGGLVKPGGSLKLSCAASGFTFSSYAMSWVRQIPEKRLEWVASISRGGTTYYPDSVKGRFTISRDNVRNILYLQMSSLRSEDTAMYYCGRYDYDGYYAMDYWGQGTSVTVSS
VL: DVQITQSPSSLYASLGERVTITCKASPDINSYLSWFQQKPGKSPKTLIYRANRLVDGVPSRFSGGGSGQDYSLTINSLEYEDMGIYYCLQYDEFPYTFGGGTKLEMK
notes: also called Murine ROR1_v2 VH; murine ROR1 scFv
B15: Hum ROR1_07VH_(G4S)3x_VL_05 (antibody, mouse IgG1, V domains shown)
VH: B1 VH with M34I, S35I, S49A, S50R, Y58R, P60A, R71A, N73T, N76E, L78A
VL: B1 VL with N34S, Y71F, F83I, A100Q, V104L
notes: as for B1
B16: Hum ROR1_07VH_(G4S)3x_VL_18 (antibody, mouse IgG1, V domains shown)
VH: B1 VH with M34I, S35I, S49A, S50R, Y58R, P60A, R71A, N73T, N76E, L78A
VL: DIQLTQSPDSLAVSLGERATINCKASPDINSYLSWYQQRPGQPPRLLIHRANRLVDGVPDRFSGSGFGTDFTLTITSLQAEDVAIYYCLQYDEFPYTFGQGTKLEIK
notes: as for B1
B17: Hum ROR1_18VH_(G4S)3x_VL_07 (antibody, mouse IgG1, V domains shown)
VH: B9 VH
VL: B1 VL with K24R, L33V, N34A, R53F, V55E, D56S, G66R, Y71F, A100Q
notes: as for B1
B18: Hum ROR1_18VH_(G4S)3x_VL_16 (antibody, mouse IgG1, V domains shown)
VH: B9 VH
VL: B1 VL with L46V, A100Q
notes: as for B1
B19: Clone 07 (antibody, V domains shown)
VH: B1 VH with M34I, S35I, S49A, S50R, Y58R, P60A, R71A, N73T, N76E, L78A
VL: B1 VL with K24R, L33V, N34A, R53F, V55E, D56S, G66R, Y71F, A100Q
notes: Variable regions fused to mouse constant regions (chimeric mouse IgG1 mAb) for SPR; also called hROR1 VH_07 / hROR1 VL_07
B20: Clone 18 (antibody, V domains shown)
VH: B9 VH
VL: B16 VL
notes: Variable regions fused to mouse constant regions (chimeric mouse IgG1 mAb) for SPR; also called hROR1 VH_18 / hROR1 VL_18

Key:
[1] = molecular target: Signal peptide CD8α, Stalk CD8α; test: flow cytometry of T cells nucleofected with the CAR construct, Day 1, Protein L-biotin + SA-APC against CD3-FITC; the filing reports it as CAR surface expression (legend: the short CD8α stalk does not permit surface expression)
[2] = molecular target: Signal peptide CD28, Stalk CD8α; test: as above
[3] = molecular target: Signal peptide mIgVH, Stalk CD8α; test: as above
[4] = molecular target: Signal peptide Ig Kappa, Stalk CD8α; test: as above
[5] = molecular target: T1, ROR1-His (UniProt Q01973 30-403, limits assumed); test: ROR1-His affinity of the construct's binding domain; method not given
T1 construct: The construct is described nowhere; not shown: His tag
T1 sequence (Q01973 30-403 limits assumed): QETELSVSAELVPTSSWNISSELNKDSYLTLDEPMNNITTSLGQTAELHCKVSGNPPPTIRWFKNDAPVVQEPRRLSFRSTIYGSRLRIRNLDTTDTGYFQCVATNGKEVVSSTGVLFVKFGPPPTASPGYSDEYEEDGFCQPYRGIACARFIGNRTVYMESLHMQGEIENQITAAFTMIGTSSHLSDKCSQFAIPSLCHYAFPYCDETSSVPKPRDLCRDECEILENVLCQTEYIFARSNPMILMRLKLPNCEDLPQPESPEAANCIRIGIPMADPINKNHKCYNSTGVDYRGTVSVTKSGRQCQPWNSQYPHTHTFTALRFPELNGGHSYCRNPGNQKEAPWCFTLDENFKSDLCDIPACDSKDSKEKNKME

[6] = molecular target: Extracellular domain (ECD) of ROR1 fused to human Fc region (UniProt Q01973); test: SPR, Biacore 3000; ROR1 ECD-human Fc on CM5 chip, antibody in solution; ROR1 ECD-human Fc on the chip per paragraph 451; same number stands under ROR1-His in Table 9
Sequence of Extracellular domain (ECD) of ROR1 fused to human Fc region (UniProt Q01973) (Q01973 30-406 limits assumed): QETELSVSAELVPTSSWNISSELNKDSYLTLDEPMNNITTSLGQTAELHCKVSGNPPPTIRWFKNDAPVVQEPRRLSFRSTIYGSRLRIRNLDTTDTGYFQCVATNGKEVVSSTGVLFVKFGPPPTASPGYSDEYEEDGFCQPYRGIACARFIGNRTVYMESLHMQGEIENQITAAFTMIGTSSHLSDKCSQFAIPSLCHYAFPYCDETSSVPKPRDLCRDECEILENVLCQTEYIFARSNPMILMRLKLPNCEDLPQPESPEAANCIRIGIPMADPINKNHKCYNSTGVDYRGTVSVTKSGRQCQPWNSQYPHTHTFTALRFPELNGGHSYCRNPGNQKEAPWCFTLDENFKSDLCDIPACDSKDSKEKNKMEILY

[7] = molecular target: Extracellular domain (ECD) of ROR1 fused to human Fc region (UniProt Q01973); test: ROR1-Fc affinity of the construct's binding domain; method not given
[8] = molecular target: T2, Extracellular domain (ECD) of ROR1 fused to human Fc region (UniProt Q01973 30-406, limits assumed); test: SPR, Biacore 3000; ROR1 ECD-human Fc on CM5 chip, antibody in solution
T2 construct: extracellular domain; also called ROR1-Fc; ROR1-FC; not shown: human Fc region
T2 sequence (Q01973 30-406 limits assumed): as above
Protocol: Different concentrations of humanized antibodies were injected in solution phase and data was analyzed using BIAevaluation to calculate Kd of the antibodies.

[9] = molecular target: Extracellular domain (ECD) of ROR1 fused to human Fc region (UniProt Q01973); test: as above
[10] = molecular target: T1, ROR1-His; test: ROR1-His affinity of the construct's binding domain; method not given; ROR1-His column, not ROR1-Fc (2.31E-08)

Row | Molecule | Kd [5] | Kd [7] | Kd [8] | Kd [9] | other results
1 | Protein L-biotin |  |  |  |  | fraction in quadrant Q6 (Protein L-biotin-SA-APC+, CD3-FITC+) [1]: 1.88; fraction in quadrant Q6 (Protein L-biotin-SA-APC+, CD3-FITC+) [2]: 2.6; fraction in quadrant Q6 (Protein L-biotin-SA-APC+, CD3-FITC+) [3]: 2.13; fraction in quadrant Q6 (Protein L-biotin-SA-APC+, CD3-FITC+) [4]: 2.53
2 | B1 | 0.355 nM | 0.193 nM |  |  | Kd [6]: 0.355 nM
3 | B2 |  |  | ~55 nM |  | 
4 | B3 | 37.4 nM | 35 nM |  | 35 nM | 
5 | B4 | 1.45 nM |  |  | 1.45 nM | 
6 | B5 |  |  | 3.03 nM |  | 
7 | B6 | 0.337 nM | 0.273 nM |  | 0.337 nM | 
8 | B7 |  |  | 4.08 nM |  | 
9 | B8 |  |  | 131 nM |  | 
10 | B9 | 0.209 nM | 0.201 nM |  | 0.209 nM | 
11 | B10 | 1.3 nM | 0.959 nM |  | 1.3 nM | 
12 | B11 | 0.408 nM | 0.284 nM |  | 0.408 nM | 
13 | B12 |  |  | 4.52 nM |  | 
14 | B13 | 0.372 nM | 0.271 nM |  | 0.372 nM | 
15 | B14 |  | 23.1 nM |  |  | Kd [10]: 70.7 nM
16 | B15 |  |  | 7.16 nM |  | 
17 | B16 |  |  | 11.7 nM |  | 
18 | B17 |  |  | 3.87 nM |  | 
19 | B18 |  |  | 1.6 nM |  | 
20 | B19 |  |  | ~90 nM |  | 
21 | B20 |  |  | 12.7 nM |  | 
